Here are results for 4 substances from patent publication US5973116.

The target in the experiment is human placental alkaline phosphatase (hPLAP) (human) (UniProt P05187). Kind of experiment: ELISA plate with bound antigen, washed with copious amounts of 50 mM DEA.

H17-Link-BSRNaseKDEL displayed a percent washed off with 50 mM DEA of 40%. For the substance single-chain H17E2 antibody (scFv), the percent washed off with 50 mM DEA was > 90%.

In the case of H17-BSRNase, the percent washed off with 50 mM DEA worked out at 40%. On to H17-BSRNaseKDEL, for which the percent washed off with 50 mM DEA came out at 40%.
